Laboratory results reported in PMC11493271, “The N-terminal activation function AF-1 domain of ERα interacts directly with the C-terminal AF-2-holding ligand-binding domain to recruit the coactivator proteins” (PLOS ONE, 2024).
“Also recorded” adds a separate entry of the source.

T1: full-length ERα (Homo sapiens, UniProt P03372)
T1 construct: […]; host or cells: HeLa cells
T1 sequence (P03372 1-595): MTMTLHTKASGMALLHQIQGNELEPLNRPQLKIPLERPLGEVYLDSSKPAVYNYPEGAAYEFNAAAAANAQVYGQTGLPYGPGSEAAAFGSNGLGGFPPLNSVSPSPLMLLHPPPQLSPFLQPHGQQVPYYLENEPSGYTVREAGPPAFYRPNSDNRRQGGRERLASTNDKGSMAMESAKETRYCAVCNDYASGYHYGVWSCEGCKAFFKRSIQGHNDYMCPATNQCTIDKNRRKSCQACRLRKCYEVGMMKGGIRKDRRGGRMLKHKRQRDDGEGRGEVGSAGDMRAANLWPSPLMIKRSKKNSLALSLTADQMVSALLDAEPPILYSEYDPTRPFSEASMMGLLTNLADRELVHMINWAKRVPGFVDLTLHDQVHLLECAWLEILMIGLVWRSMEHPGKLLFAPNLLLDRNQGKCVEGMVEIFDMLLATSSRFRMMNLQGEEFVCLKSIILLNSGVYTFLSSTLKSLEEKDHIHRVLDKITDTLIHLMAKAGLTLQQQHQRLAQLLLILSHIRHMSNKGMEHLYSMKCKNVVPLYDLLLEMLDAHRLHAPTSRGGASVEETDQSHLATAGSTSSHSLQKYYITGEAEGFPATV

T2: desNTD(AF-1)-ERα (Homo sapiens, UniProt P03372)
T2 sequence (P03372 181-595): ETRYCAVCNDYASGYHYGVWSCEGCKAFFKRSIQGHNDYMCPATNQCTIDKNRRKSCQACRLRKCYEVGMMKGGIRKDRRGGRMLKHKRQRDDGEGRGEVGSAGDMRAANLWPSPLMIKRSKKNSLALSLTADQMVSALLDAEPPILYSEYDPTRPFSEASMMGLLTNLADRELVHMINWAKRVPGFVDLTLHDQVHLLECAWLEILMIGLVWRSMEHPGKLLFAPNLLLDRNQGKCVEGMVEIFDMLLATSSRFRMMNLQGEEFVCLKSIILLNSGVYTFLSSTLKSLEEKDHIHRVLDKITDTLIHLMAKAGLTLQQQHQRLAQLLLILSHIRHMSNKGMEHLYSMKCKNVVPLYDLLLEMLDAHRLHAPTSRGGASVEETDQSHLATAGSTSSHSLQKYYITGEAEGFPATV


Key:
[1] = biological target: desNTD(AF-1)-ERα, ERα C-terminal fragment with amino acid residues 181-595 (human) (UniProt P03372)
[2] = biological target: full-length estrogen receptor alpha (ERα), wild type (1-595) (human) (UniProt P03372)
[3] = biological target: full-length estrogen receptor alpha (ERα), wild type (1-595) (human) (UniProt P03372); remark: listed apart in the source
full-length ERα = biological target: T1, full-length ERα; assay: ERα-NTD(AF-1) inhibition assay: co-expression with full-length ERα, luciferase reporter gene assay in HeLa cells; type: cell-based; settings: for effect on transcription activity of full-length ERα: plasmid 0.01–2.00 μg/well with full-length ERα 0.05 μg/well, E2 0.1, 1 or 50 nM, Fig 3
Method: Other expression plasmids were used in fixed amounts: full-length ERα/pcDNA3.1 (0.05 μg/well), 3 × ERE/pGL3 (0.15 μg/well), and pGL4.74 (0.05 μg/well) (Table 1).
Gene transfections followed by luciferase reporter gene assays were carried out basically as described above.
Thus, each distinct maximal activity was evaluated precisely as a percentage.

[4] = system: 3 × ERE/pGL3 luciferase reporter; assay: Transcription activity of truncated ERα derivatives in the luciferase reporter gene assay (HeLa cells); settings: plasmid 250 ng/well
Method: (§1) The luciferase reporter gene assays were carried out exactly as described above.

desNTD(AF-1)-ERα = biological target: T2, desNTD(AF-1)-ERα; assay: Luciferase reporter gene assay for desNTD(AF-1)-ERα, alone or co-expressed with ERα-NTD(AF-1), in HeLa cells
Method: as §1

Molecule | luciferase reporter gene assay in HeLa cells: apparent IC50 of the ERα-NTD(AF-1) plasmid (amount transfected per well of a 6-well microplate) for inhibition of desNTD(AF-1)-ERα [1] | luciferase reporter gene assay in HeLa cells: apparent IC50 of the ERα-NTD(AF-1) plasmid (amount transfected per well of a 6-well microplate) for the activity of 10 nM E2 on full-length ERα [2] | luciferase reporter gene assay in HeLa cells: IC50 of the ERα-NTD(AF-1) plasmid (amount transfected per well of a 6-well microplate) from the curve of the maximal activity of ERα/E2 [3] | IC50 from transfection amount vs maximal activity of ERα/E2 (full-length ERα; E2 dose-response maxima, plasmid per well of 6-well microplate, Fig 4C) | effect on transcription activity of full-length ERα (full-length ERα) | apparent IC50 for inhibition of full-length ERα (full-length ERα; residual activity of 10 nM E2, plasmid per well of 6-well microplate, Fig 4A) | mode of inhibition of full-length ERα (full-length ERα; with respect to E2) | transcription activation (response to E2) ([4]; construct expressed alone) | relative activity (% of wild-type full-length ERα) ([4]; maximal E2 activity) | reduction in E2-induced transactivation compared to desNTD(AF-1)-ERα alone (desNTD(AF-1)-ERα; ERα-NTD(AF-1): desNTD(AF-1)-ERα = 1:1, desNTD(AF-1)-ERα 250 ng/well) | apparent IC50 for inhibition of desNTD(AF-1)-ERα (desNTD(AF-1)-ERα; plasmid amount per well of 6-well microplate used for transfection) | reduction in E2-induced transactivation compared to desNTD(AF-1)-ERα alone (desNTD(AF-1)-ERα; ratio 2:1) | reduction in E2-induced transactivation compared to desNTD(AF-1)-ERα alone (desNTD(AF-1)-ERα; ratio 3:1) | reduction in E2-induced transactivation compared to desNTD(AF-1)-ERα alone (desNTD(AF-1)-ERα; ratio 4:1) | reduction in E2-induced transactivation compared to desNTD(AF-1)-ERα alone (desNTD(AF-1)-ERα; ratio 5:1) | reduction in E2-induced transactivation compared to desNTD(AF-1)-ERα alone (desNTD(AF-1)-ERα; ratio 6:1)
ERα-NTD(AF-1), untethered free N-terminal fragment of estrogen receptor alpha (residues 1-180), non-tagged (from UniProt P03372 1-180) (domain or fragment) | 863 ng/well | 836 ng/well | 631 ng/well | – | – | – | – | – | – | – | – | – | – | – | – | –
ERα-NTD(AF-1): ERα N-terminal fragment with amino acid residues 1–180, expressed from plasmid ERα-NTD(AF-1)/pcDNA3.1 (protein) MTMTLHTKASGMALLHQIQGNELEPLNRPQLKIPLERPLGEVYLDSSKPAVYNYPEGAAYEFNAAAAANAQVYGQTGLPYGPGSEAAAFGSNGLGGFPPLNSVSPSPLMLLHPPPQLSPFLQPHGQQVPYYLENEPSGYTVREAGPPAFYRPNSDNRRQGGRERLASTNDKGSMAMESAK | – | – | – | 631 ng/well | reduced in a dose-dependent manner | 836 ng/well | non-competitive inhibitor | completely inactive; also recorded: completely devoid of transcription activation | 0% | ~20% | 863 ng/well | 44% | 62% | 73% | 85% | 91%
FLAG-ERα-NTD(AF-1): ERα-NTD(AF-1) tagged at the N-terminus with DYKDDDDK, a FLAG-epitope peptide (protein, left off: FLAG, N-terminal, kept) MTMTLHTKASGMALLHQIQGNELEPLNRPQLKIPLERPLGEVYLDSSKPAVYNYPEGAAYEFNAAAAANAQVYGQTGLPYGPGSEAAAFGSNGLGGFPPLNSVSPSPLMLLHPPPQLSPFLQPHGQQVPYYLENEPSGYTVREAGPPAFYRPNSDNRRQGGRERLASTNDKGSMAMESAK | – | – | – | – | inhibits full-length ERα | – | – | – | – | – | – | – | – | – | – | –
